The text below walks through data of PMC3967872 (DNA repair, 2014).

B3: GST fusion of S. pombe Myh1(245-461) (domain or fragment, UniProt Q10159 245-461, looked up)
chain: YQEQNVIRDGNTIKYDIEDVPCNICITDIPSKEDLQNWVVARYPVHPAKTKQREERALVVIFQKTDPSTKEKFFLIRKRPSAGLLAGLWDFPTIEFGQESWPKDMDAEFQKSIAQWISNDSRSLIKKYQSRGRYLHIFSHIRKTSHVFYAIASPDIVTNEDFFWISQSDLEHVGMCELGLKNYRAALEIKKRKVTSLSNFKEPKLTSARRIVTKAEC
B5: GST fusion of intact wild-type S. pombe Myh1 (GST-Myh1) (enzyme, UniProt Q10159 1-461, looked up)
chain: MSDSNHSLDLHSYTQLEVERFRESLIQFYDKTKRILPWRKKECIPPSEDSPLEDWEQPVQRLYEVLVSEIMLQQTRVETVKRYYTKWMETLPTLKSCAEAEYNTQVMPLWSGMGFYTRCKRLHQACQHLAKLHPSEIPRTGDEWAKGIPGVGPYTAGAVLSIAWKQPTGIVDGNVIRVLSRALAIHSDCSKGKANALIWKLANELVDPVRPGDFNQALMELGAITCTPQSPRCSVCPISEICKAYQEQNVIRDGNTIKYDIEDVPCNICITDIPSKEDLQNWVVARYPVHPAKTKQREERALVVIFQKTDPSTKEKFFLIRKRPSAGLLAGLWDFPTIEFGQESWPKDMDAEFQKSIAQWISNDSRSLIKKYQSRGRYLHIFSHIRKTSHVFYAIASPDIVTNEDFFWISQSDLEHVGMCELGLKNYRAALEIKKRKVTSLSNFKEPKLTSARRIVTKAEC

Common to all, as to test: pull-down
The target of experiment [1] is B3.
In experiment [2] the target is B5.
Experiment [3] concerns the target T1, His-tagged full-length S. pombe Apn2 with Asn at position 254 (His-Apn2^N254) (S. pombe, UniProt P87175 1-523).
T1 sequence (looked up): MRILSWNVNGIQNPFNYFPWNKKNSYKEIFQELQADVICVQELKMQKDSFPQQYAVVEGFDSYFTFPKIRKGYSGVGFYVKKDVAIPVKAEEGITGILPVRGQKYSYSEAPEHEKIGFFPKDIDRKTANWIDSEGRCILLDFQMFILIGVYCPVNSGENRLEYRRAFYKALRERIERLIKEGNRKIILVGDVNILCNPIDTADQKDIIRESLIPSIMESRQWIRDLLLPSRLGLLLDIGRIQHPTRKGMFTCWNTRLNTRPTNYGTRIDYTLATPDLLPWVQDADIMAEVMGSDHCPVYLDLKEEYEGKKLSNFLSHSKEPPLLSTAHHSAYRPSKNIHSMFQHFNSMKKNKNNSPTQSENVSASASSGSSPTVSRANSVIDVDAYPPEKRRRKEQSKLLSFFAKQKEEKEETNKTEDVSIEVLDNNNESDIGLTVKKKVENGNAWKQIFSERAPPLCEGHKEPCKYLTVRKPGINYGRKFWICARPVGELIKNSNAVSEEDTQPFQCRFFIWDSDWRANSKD

The target in experiment [4] is T2, His-tagged full-length SpApn2^N254/S295, catalytically inactive mutant (His-Apn2^S295) (S. pombe, UniProt P87175 1-523, H295S).
T2 sequence (looked up): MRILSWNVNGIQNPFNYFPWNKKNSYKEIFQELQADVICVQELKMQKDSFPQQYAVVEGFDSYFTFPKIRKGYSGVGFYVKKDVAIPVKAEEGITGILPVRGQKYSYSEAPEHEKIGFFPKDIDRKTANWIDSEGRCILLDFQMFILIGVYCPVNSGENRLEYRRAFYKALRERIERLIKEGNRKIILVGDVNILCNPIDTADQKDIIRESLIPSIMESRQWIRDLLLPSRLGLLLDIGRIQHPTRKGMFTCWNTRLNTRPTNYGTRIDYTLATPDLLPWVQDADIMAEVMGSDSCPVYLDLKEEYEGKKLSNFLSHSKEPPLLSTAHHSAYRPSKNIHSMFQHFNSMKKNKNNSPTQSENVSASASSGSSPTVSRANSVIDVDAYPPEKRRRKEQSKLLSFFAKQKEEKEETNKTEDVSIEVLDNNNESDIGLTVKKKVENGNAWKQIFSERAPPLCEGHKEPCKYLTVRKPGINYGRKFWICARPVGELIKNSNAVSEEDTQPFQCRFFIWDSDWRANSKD

B1: His-tagged full-length S. pombe Apn2 with Ser at position 254 (His-Apn2^S254) (enzyme, UniProt P87175 1-523, looked up)
chain: MRILSWNVNGIQNPFNYFPWNKKNSYKEIFQELQADVICVQELKMQKDSFPQQYAVVEGFDSYFTFPKIRKGYSGVGFYVKKDVAIPVKAEEGITGILPVRGQKYSYSEAPEHEKIGFFPKDIDRKTANWIDSEGRCILLDFQMFILIGVYCPVNSGENRLEYRRAFYKALRERIERLIKEGNRKIILVGDVNILCNPIDTADQKDIIRESLIPSIMESRQWIRDLLLPSRLGLLLDIGRIQHPTRKGMFTCWSTRLNTRPTNYGTRIDYTLATPDLLPWVQDADIMAEVMGSDHCPVYLDLKEEYEGKKLSNFLSHSKEPPLLSTAHHSAYRPSKNIHSMFQHFNSMKKNKNNSPTQSENVSASASSGSSPTVSRANSVIDVDAYPPEKRRRKEQSKLLSFFAKQKEEKEETNKTEDVSIEVLDNNNESDIGLTVKKKVENGNAWKQIFSERAPPLCEGHKEPCKYLTVRKPGINYGRKFWICARPVGELIKNSNAVSEEDTQPFQCRFFIWDSDWRANSKD
B1: the “fold weaker interaction than intact Myh1” value in experiment [1] worked out at 2 fold.

B2: His- and maltose binding protein (MBP)-tagged SpApn2 residues 1-303 (His-MBP-Apn2^1-303) (domain or fragment, S. pombe, UniProt P87175 1-303, looked up)
chain: MRILSWNVNGIQNPFNYFPWNKKNSYKEIFQELQADVICVQELKMQKDSFPQQYAVVEGFDSYFTFPKIRKGYSGVGFYVKKDVAIPVKAEEGITGILPVRGQKYSYSEAPEHEKIGFFPKDIDRKTANWIDSEGRCILLDFQMFILIGVYCPVNSGENRLEYRRAFYKALRERIERLIKEGNRKIILVGDVNILCNPIDTADQKDIIRESLIPSIMESRQWIRDLLLPSRLGLLLDIGRIQHPTRKGMFTCWSTRLNTRPTNYGTRIDYTLATPDLLPWVQDADIMAEVMGSDHCPVYLDLK
B2: the binding result in experiment [2] is recorded as “binds”.

On to B3, for which the binding result in experiment [3] is “binds”.

B4: GST fusion of S. pombe Myh1(I261A) (enzyme, UniProt Q10159 1-461, looked up)
chain: MSDSNHSLDLHSYTQLEVERFRESLIQFYDKTKRILPWRKKECIPPSEDSPLEDWEQPVQRLYEVLVSEIMLQQTRVETVKRYYTKWMETLPTLKSCAEAEYNTQVMPLWSGMGFYTRCKRLHQACQHLAKLHPSEIPRTGDEWAKGIPGVGPYTAGAVLSIAWKQPTGIVDGNVIRVLSRALAIHSDCSKGKANALIWKLANELVDPVRPGDFNQALMELGAITCTPQSPRCSVCPISEICKAYQEQNVIRDGNTIKYDAEDVPCNICITDIPSKEDLQNWVVARYPVHPAKTKQREERALVVIFQKTDPSTKEKFFLIRKRPSAGLLAGLWDFPTIEFGQESWPKDMDAEFQKSIAQWISNDSRSLIKKYQSRGRYLHIFSHIRKTSHVFYAIASPDIVTNEDFFWISQSDLEHVGMCELGLKNYRAALEIKKRKVTSLSNFKEPKLTSARRIVTKAEC
In the case of B4, in experiment [3], the binding result is reported as “binds”.

As for B5, the binding result in experiment [3] and in experiment [4] was “binds” throughout.
